The target in experiment [1] is T1, human nerve growth factor (NGF) (human, UniProt P01138 122-241, limits assumed). Put plainly: cell-based or functional assay.
Experiment [2] addresses T1, human nerve growth factor (NGF). Put plainly: BIACORE SPR; complex dissociation half-life. The procedure:
(§1) Antibodies were captured on either a goat, anti-human or anti-mouse IgG polyclonal antibody surface created by direct amine coupling of the capture antibody to a BIACORE™ chip. […] Kinetic analysis was performed to obtain the equilibrium dissociation constant (KD) and dissociation rate constant, and the latter was used to calculate the antigen/antibody complex dissociation t_{1/2} (Table 1).

For experiment [3] the target is unchanged. Kind of experiment: BIACORE SPR; mAb captured, human NGF injected. As to the method: as §1
Experiment [4] shares this target. Kind of experiment: BIACORE blocking; % free NGF bound to p75-hFc chip. From the text: (§2) To identify blocking antibodies, a receptor blocking assay was designed using a BIACORE™ 3000 instrument. Recombinant human TrkA-hFc and human p75-hFc proteins were amine-coupled to a CM5 chip to a density of about 5000-6000 RU.
In general terms: In SPR one partner is held on a chip, and binding of the other changes the refractive index at the surface.

Experiment [5] addresses T2, human neurotrophin-3 (NT-3) (human, UniProt P20783 139-257).
T2 construct: also called human NT-3
T2 sequence (looked up): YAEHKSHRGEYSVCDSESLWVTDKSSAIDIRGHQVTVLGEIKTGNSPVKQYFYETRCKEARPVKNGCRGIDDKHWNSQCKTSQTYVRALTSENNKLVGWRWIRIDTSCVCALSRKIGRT
Kind of experiment: BIACORE SPR; mAb captured, NT-3 injected. As to the method:
(§3) Briefly, goat anti-human IgG polyclonal antibody was chemically linked to a CM5 chip. […] Both association and dissociation phases were monitored and data were analyzed.

The next experiment addresses mouse NGF (mNGF) (mouse, UniProt P01139 122-241, limits assumed). Put plainly: BIACORE SPR. The procedure: as §1
(§4) The binding affinities of the antibodies to both mNGF and rNGF were determined as described above.

For experiment [6], the target named is T1, human nerve growth factor (NGF). Put plainly: BIACORE SPR. As to the method: as §1, §4
Another experiment deals with rat NGF (rNGF) (rat, UniProt P25427 122-241, limits assumed). Put plainly: BIACORE SPR. As to the method: as §1, §4
Experiment [7] has as its target T1, human nerve growth factor (NGF). Kind of experiment: BIACORE SPR; mAb captured, 20 nM NGF. As to the method:
as §3

Experiment [8] has the same target. Kind of experiment: BIACORE blocking; % free NGF bound to TrkA-hFc chip.
From the text: as §2

For orientation: Kd means the free concentration of one partner at which half of the binding sites on the other are occupied at equilibrium, for simple one-to-one binding. Low values mean tighter binding, high ones weaker binding.

T1 sequence (P01138 122-241 limits assumed): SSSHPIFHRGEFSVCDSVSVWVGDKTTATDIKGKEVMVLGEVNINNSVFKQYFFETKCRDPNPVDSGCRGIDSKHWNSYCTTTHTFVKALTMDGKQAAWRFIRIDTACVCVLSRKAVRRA
T1 sequence (P01138 122-241 limits assumed): as above
rat NGF (rNGF), sequence (P25427 122-241 limits assumed): as the sequence (P01138 122-241 limits assumed) above, with S3T, I6V, R9M, M37T, D60A, D65E, M92T, G94D, V117A, A120G counted along it
mouse NGF (mNGF), sequence (P01139 122-241 limits assumed): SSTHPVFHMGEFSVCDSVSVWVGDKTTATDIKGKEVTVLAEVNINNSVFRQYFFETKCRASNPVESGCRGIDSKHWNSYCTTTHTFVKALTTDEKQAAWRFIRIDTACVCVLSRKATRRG

B1: 301272-3H10-A10 (antibody)
heavy: not shown
VL: DIRMTQSPSSLSASAGDRVTITCRASQAIRNDLGWYQQKPGKAPKRLIYAAFNLQSGVPSRFSGSGSGTEFTLTISSLQPEDLASYYCQQYNRYPWTFGQGTKLEIK
notes: also called REGN261
As for B1, the “MG87 IC50” value in experiment [1] was less than 186 pM. In addition, the “PC12 IC50” value in experiment [1] was 9 pM. The t1/2 in experiment [2] is 25.2 h. Further, the Kd in experiment [3] stood at 0.1 pM; in the experiment with mouse NGF (mNGF), 0.2 pM; in experiment [6], 0.1 pM; with rat NGF (rNGF), 0.6 pM; in [7] it was 0.1 pM. Also, the “% Binding p75-hFc” value in experiment [4] was 2%. Further, the binding result in experiment [5] is on record as “no binding (tested: 20 nM)”. Moreover, the “% Binding TrkA-hFc” value in experiment [8] came out at 1%.

Source of the values: patent publication US20120164688A1 (Regeneron, published 2012).
